T1: human GITR on cells (human, UniProt Q9Y5U5 26-241)
T1 chain: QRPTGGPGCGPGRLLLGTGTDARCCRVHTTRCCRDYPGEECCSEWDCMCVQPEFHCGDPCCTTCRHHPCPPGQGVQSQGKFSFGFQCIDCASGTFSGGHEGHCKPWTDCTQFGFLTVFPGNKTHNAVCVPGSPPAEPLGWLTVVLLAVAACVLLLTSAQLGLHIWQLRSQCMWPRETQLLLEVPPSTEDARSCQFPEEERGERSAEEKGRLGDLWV


Biological target: T1, human GITR on cells
Assay: FACS binding to anti-CD3/CD28-activated human CD4 T cells

| Binder | EC50 |
| --- | --- |
| anti-GITR-IgG2-IgG1.1 (antibody) heavy: QVQLVESGGGVVQPGRSLRLSCAASGFTFSSYGMHWVRQAPGKGLEWVAVIWYEGSNKYYADSVKGRFTISRDNSKNTLYLQMNSLRAEDTAVYYCARGGSMVRGDYYYGMDVWGQGTTVTVSSASTKGPSVFPLAPCSRSTSESTAALGCLVKDYFPEPVTVSWNSGALTSGVHTFPAVLQSSGLYSLSSVVTVPSSNFGTQTYTCNVDHKPSNTKVDKTVERKCCVECPPCPAPPVAGPSVFLFPPKPKDTLMISRTPEVTCVVVDVSHEDPEVKFNWYVDGVEVHNAKTKPREEQYNSTYRVVSVLTVLHQDWLNGKEYKCKVSNKALPSSIEKTISKAKGQPREPQVYTLPPSREEMTKNQVSLTCLVKGFYPSDIAVEWESNGQPENNYKTTPPVLDSDGSFFLYSKLTVDKSRWQQGNVFSCSVMHEALHNHYTQKSLSLSPG light: not shown | 0.163 nM |
| anti-GITR-IgG2 (antibody) heavy: QVQLVESGGGVVQPGRSLRLSCAASGFTFSSYGMHWVRQAPGKGLEWVAVIWYEGSNKYYADSVKGRFTISRDNSKNTLYLQMNSLRAEDTAVYYCARGGSMVRGDYYYGMDVWGQGTTVTVSSASTKGPSVFPLAPCSRSTSESTAALGCLVKDYFPEPVTVSWNSGALTSGVHTFPAVLQSSGLYSLSSVVTVPSSNFGTQTYTCNVDHKPSNTKVDKTVERKCCVECPPCPAPPVAGPSVFLFPPKPKDTLMISRTPEVTCVVVDVSHEDPEVQFNWYVDGVEVHNAKTKPREEQFNSTFRVVSVLTVVHQDWLNGKEYKCKVSNKGLPAPIEKTISKTKGQPREPQVYTLPPSREEMTKNQVSLTCLVKGFYPSDIAVEWESNGQPENNYKTTPPMLDSDGSFFLYSKLTVDKSRWQQGNVFSCSVMHEALHNHYTQKSLSLSPGK light: not shown | 0.277 nM |

Source: patent US20220106400A1 (published 2022)
